Laboratory results from IntAct's records for PubMed 24302889.

B1: Retinoblastoma-related protein 1 (Arabidopsis thaliana (Mouse-ear cress)), Q9LKZ3 (parent)
chain: MEEVQPPVTPPIEPNGKRSEASLLDICEKVLSLDGSTCDEALKLFTETKRILSASMSNIGSGTREEVERFWFAFILYSVKRLSVRKEADGLSVSGDNEFNLCQILRALKLNIVDFFKELPQFVVKAGSVLGELYGADWENRLQAKEVQANFVHLSLLSKYYKRGFREFFLTYDANAEKNSANSSTYLLDSYRFGWLLFLALRNHAFSRFKDLVTCSNGVVSILAILIIHVPCRFRNFSIQDSSRFVKKGDKGVDLVASLCKIYDASEDELRIVIDKANNLVETILKKKPSPASECQTDKLDNIDPDGLTYFEDLLEETSISTSLITLEKDYYDGKGELDERVFINEEDSLLGSGSLSAGAVNITGVKRKIDALSSPARTFISPLSPHKSPAAKTNGISGATKLAATPVSTAMTTAKWLRTVISPLLPKPSPGLEHFLKSCDRDITNDVTRRAHIILEAIFPNSSLGAQCGGGSLQAVDLMDDIWAEQRRLEACKLYYRVLEAMCKAEAQILHANNLNSLLTNERFHRCMLACSAELVLATHKTITMLFPAVLERTGITAFDLSKVIESFIRHEDSLPRELRRHLNSLEERLLESMVWEKGSSMYNSLIVARPSLALEINQLGLLAEPMPSLDAIAALINFSDGANHASSVQKHETCPGQNGGIRSPKRLCTDYRSILVERNSFTSPVKDRLLALGNVKSKMLPPPLQSAFASPTRPNPGGGGETCAETGINIFFTKINKLAAVRINGMVERLQLSQQIRESVYCFFQHVLAQRTSLLFSRHIDQIILCCFYGVAKISQMSLTFREIIYNYRKQPQCKPLVFRSVYVDALQCRRQGRIGPDHVDIITFYNEIFIPAVKPLLVELGPVRNDRAVEANNKPEGQCPGSPKVSVFPSVPDMSPKKVSAVHNVYVSPLRGSKMDALISHSTKSYYACVGESTHAYQSPSKDLSAINNRLNNSSSNRKRTLNFDAEAGMVSDSMVANSLNLQNQNQNQNGSDASSSGGAAPLKTEPTDS
partner: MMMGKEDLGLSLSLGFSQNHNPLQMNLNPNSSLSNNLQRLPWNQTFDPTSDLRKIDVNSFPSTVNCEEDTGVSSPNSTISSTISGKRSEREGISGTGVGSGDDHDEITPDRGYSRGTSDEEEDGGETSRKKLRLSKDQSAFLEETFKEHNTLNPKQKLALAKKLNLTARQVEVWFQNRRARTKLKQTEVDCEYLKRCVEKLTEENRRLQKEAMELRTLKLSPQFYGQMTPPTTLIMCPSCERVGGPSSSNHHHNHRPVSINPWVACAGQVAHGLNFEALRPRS

Variants of: B1
Conditions: with hat2_arath HAT2, P46601

| effect of a mutation on the interaction | Variant |
| --- | --- |
| disrupting interaction strength | N849F |
